Measured values from patent publication US20260347506 (published 2026).
“And” between values parts separate entries of the source, which are not always exact repeats. Equal values may be shown once.

T1: human IgE (human, UniProt P01854)
T1 chain: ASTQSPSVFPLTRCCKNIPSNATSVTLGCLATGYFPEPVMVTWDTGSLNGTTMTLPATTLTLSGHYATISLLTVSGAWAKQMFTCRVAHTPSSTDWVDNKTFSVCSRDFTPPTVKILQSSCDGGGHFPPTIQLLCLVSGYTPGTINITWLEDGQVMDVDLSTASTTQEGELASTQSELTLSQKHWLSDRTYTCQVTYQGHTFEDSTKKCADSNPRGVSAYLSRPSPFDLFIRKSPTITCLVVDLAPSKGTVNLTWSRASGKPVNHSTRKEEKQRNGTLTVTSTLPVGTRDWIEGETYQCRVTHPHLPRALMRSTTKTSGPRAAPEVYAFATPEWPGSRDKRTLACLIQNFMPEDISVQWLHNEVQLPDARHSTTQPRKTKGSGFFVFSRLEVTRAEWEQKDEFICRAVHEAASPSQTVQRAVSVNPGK


Assays:
human IgE [1] = biological target: T1, human IgE; experiment: SPR
human IgE [2] = biological target: T1, human IgE; experiment: competition SPR, pH 6.0
human IgE [3] = biological target: T1, human IgE; experiment: competition ELISA, pH 6.0
human IgE [4] = biological target: T1, human IgE; experiment: competition SPR, pH 6.0
human IgE [5] = biological target: T1, human IgE; experiment: competition ELISA, pH 6.0
human IgE [6] = biological target: T1, human IgE; experiment: competition SPR, pH 7.4
human IgE [7] = biological target: T1, human IgE; experiment: competition SPR, pH 7.4
human IgE [8] = biological target: T1, human IgE; experiment: competition ELISA, pH 7.4
human IgE [9] = biological target: T1, human IgE; experiment: competition ELISA, pH 7.4
human IgE [10] = biological target: T1, human IgE; experiment: competition SPR, pH 5.5
human IgE [11] = biological target: T1, human IgE; experiment: competition SPR, pH 7.4
human IgE [12] = biological target: T1, human IgE; experiment: competition ELISA
human IgE [13] = biological target: T1, human IgE; experiment: ELISA, pH 7.4
human IgE [14] = biological target: T1, human IgE; experiment: ELISA, pH 5.5
human IgE [15] = biological target: T1, human IgE; experiment: SPR, pH 6.0
human IgE [16] = biological target: T1, human IgE; experiment: SPR, pH 7.4

IC50 (human IgE [4]) [µg/mL]	IC50 (human IgE [5]) [µg/mL]	IC50 (human IgE [6]) [µg/mL]	IC50 (human IgE [8]) [µg/mL]	Binder	also measured
–	–	–	–	OMA VH15-VL3 (antibody, V domains shown) VH: EVQLVESGGGLVQPGGSLRLSCAVSGYSITSGHRWEWIRQAPGKGLEWVASIHYDGSTNYNPSVKGRITISRDDSKNTFYLQMNSLRAEDTAVYYCARATHYFGHWHFAVWGQGTLVTVSS VL: DIQLTQSPSSLSASVGDRVTITCRASQSVDYDGDSYMNWYQQKPGKAPKLLIEWGSYLRSGVPSRFSGSGSGTDFTLTISSLQPEDFATYYCQQNAEDPYTFGQGTKVEIK	Kd (human IgE [1]): 0.0874 pM
2.5	0.0114	2.3	0.00682	13E4 (antibody, V domains shown) VH: ELQLVESGGGLVQPGGSLRLSCAASGFTFSSYVMSWVRQAPGKGLEWVSSIYHDGSHTYYADFVKGRFTISRDNAKNTLYLQMNSLKSEDTAVYYCASGTSYSGSYYYTDPFFGSWGQGTQVTVSS VL: HSAVTQPSALSVTLGQTAKITCQGGSLGSNYAYWYQQKPGQAPVLVIYDDDSRPSGIPERFSGSSSGGTATLTISGAQAEDEGDYYCQSADSNGNAVFGGGTHLTVL	IC50 (human IgE [2]): 1.54 nM; IC50 (human IgE [3]): 12.9 nM; IC50 (human IgE [7]): 1.62 nM; IC50 (human IgE [9]): 10.3 nM
3.2	0.0106	3	0.0065	13E4-hIgG1-ABDEG (antibody, V domains shown) VH: ELQLVESGGGLVQPGGSLRLSCAASGFTFSSYVMSWVRQAPGKGLEWVSSIYHDGSHTYYADFVKGRFTISRDNAKNTLYLQMNSLKSEDTAVYYCASGTSYSGSYYYTDPFFGSWGQGTQVTVSS VL: HSAVTQPSALSVTLGQTAKITCQGGSLGSNYAYWYQQKPGQAPVLVIYDDDSRPSGIPERFSGSSSGGTATLTISGAQAEDEGDYYCQSADSNGNAVFGGGTHLTVL	–
7320	26.6	5.8	1.49	18E2His2-hIgG1-ABDEG (antibody, V domains shown) VH: QLQLVESGGGLVQPGGSLRLSCAASGFTFSSYVMHWVRQAPGKGLEWVSSIYHDGSHTYYADFVKGRFTISRDNAKNTLYLQMNSLKSEDTAVYYCASGTSYSGSYYYTDPFFGSWGQGTQVTVSS VL: NFMLTQPSALSVTLGQTARITCQGDRLGSRYIHWYQQKPPQAPVLVIHDDDRRPSGIPERFSGSSSGGTATLTISGAQAEDDGDYYCQSADSSGNPVFGGGTHLTVL	–
58.5	3.02	2.7	0.19	VL18B9_Y49H (18B9His) (antibody, V domains shown) VH: QVQLVESGGGLVQPGGSLRLSCAASGFTFSSYVMSWVRQAPGKGLEWVSSIYSDGSHTYYADSVKGRFTISRDNAKNTLYLQMNSLKSEDTAVYYCAKNLEHYSGSYYYTDPRYDYWGQGTQVTVSS VL: SSALTQPSALSVTLGQTAKITCQGGSLGSSYVHWYQQKPGQAPVLVIHDGDSRPSGIPERFSGSSSGGTATLTISGAQAEDEDDYYCQSADSSGNAVFGGGTHLTVL	IC50 (human IgE [10]): 4.06 µg/mL; IC50 (human IgE [11]): 0.749 µg/mL
52.9	2.55	2.9	0.13	18B9His-hIgG1-ABDEG (antibody, V domains shown) VH: QVQLVESGGGLVQPGGSLRLSCAASGFTFSSYVMSWVRQAPGKGLEWVSSIYSDGSHTYYADSVKGRFTISRDNAKNTLYLQMNSLKSEDTAVYYCAKNLEHYSGSYYYTDPRYDYWGQGTQVTVSS VL: SSALTQPSALSVTLGQTAKITCQGGSLGSSYVHWYQQKPGQAPVLVIHDGDSRPSGIPERFSGSSSGGTATLTISGAQAEDEDDYYCQSADSSGNAVFGGGTHLTVL	–
6310	77.2	6	2.48	18E2_VH_S35H_VL_Y34H (18E2His2) (antibody, V domains shown) VH: QLQLVESGGGLVQPGGSLRLSCAASGFTFSSYVMHWVRQAPGKGLEWVSSIYHDGSHTYYADFVKGRFTISRDNAKNTLYLQMNSLKSEDTAVYYCASGTSYSGSYYYTDPFFGSWGQGTQVTVSS VL: NFMLTQPSALSVTLGQTARITCQGDRLGSRYIHWYQQKPPQAPVLVIHDDDRRPSGIPERFSGSSSGGTATLTISGAQAEDDGDYYCQSADSSGNPVFGGGTHLTVL	IC50 (human IgE [10]): 9.86 µg/mL; IC50 (human IgE [11]): 1.56 µg/mL
–	–	–	–	18E2_VLY34H_MG (18E2VL) (antibody, V domains shown) VH: QLLESGGGLVQPGGSLRLSCAASGFTFSSYVMSWVRQAPGKGLEWVSSIYHDGSHTYYADFVKGRFTISRDNSKNTLYLQMNSLRAEDTAVYYCAKGTSYSGSYYYTDPFFGSWGQGTLVTVSS VL: SSELTQDPAVSVALGQTVRITCQGDRLGSRYIHWYQQKPGQAPVLVIYDDDRRPSGIPDRFSGSSSGNTASLTITGAQAEDEADYYCQSADSSGNPVFGGGTQLTVL	IC50 (human IgE [12]): 6.06 nM; EC50 (human IgE [13]): 0.02 µg/mL and 0.0163 µg/mL; EC50 (human IgE [14]): 0.0269 µg/mL and 0.0323 µg/mL
–	–	–	–	18E2VLHis MG hIgG1-ABDEG (antibody, V domains shown) VH: QLLESGGGLVQPGGSLRLSCAASGFTFSSYVMSWVRQAPGKGLEWVSSIYHDGSHTYYADFVKGRFTISRDNSKNTLYLQMNSLRAEDTAVYYCAKGTSYSGSYYYTDPFFGSWGQGTLVTVSS VL: SSELTQDPAVSVALGQTVRITCQGDRLGSRYIHWYQQKPGQAPVLVIYDDDRRPSGIPDRFSGSSSGNTASLTITGAQAEDEADYYCQSADSSGNPVFGGGTQLTVL	Kd (human IgE [15]): 205 nM; Kd (human IgE [16]): 5.91 nM
